Patent publication US20050153923A1, “Targeted drug delivery using EphA2 or EphA4 binding moieties” (priority 2003, published 2005)
“Also recorded” adds a separate entry of the source.

Columns and labels:
[1] = target: T1, EphA2-Fc (Homo sapiens, UniProt P29317); test: Competitive ELISA: inhibition of labeled EA2 binding to EphA2-Fc; settings: unlabeled antibody, increasing concentrations; FIG. 1
T1 construct: consisted of the extracellular domain of human EphA2 linked to human immunoglobulin
Description: The ability of labeled EA2 monoclonal antibody to bind EphA2-Fc was assayed by competitive ELISA in presence of either unlabeled monoclonal antibodies EA2 or Eph099B-208.261. Ratios of unlabeled to labeled antibody used in the assay are indicated on the x-axis.
Supernatants from bulk culture hybridomas were screened for immunoreactivity against EphA2 (Table 9, column 4) using standard molecular biological techniques (e.g., ELISA immunoassay). Supernatants were further screened for the ability to inhibit an EphA2 monoclonal antibody (EA2; ATCC deposit no. PTA-4380; see co-pending U.S. patent application Ser. No. 10/436,783, entitled “EphA2 Agonistic Monoclonal Antibodies and Methods of Use Thereof” filed May 12, 2003) from binding to EphA2. […] Additionally, many of the other antibodies could inhibit EA2 binding to EphA2 as well (Table 9, column 3).

[2] = target: T2, EphA2-Ephrin A1-Fc-EA2 complex (Homo sapiens, UniProt P29317); test: Displacement of biotinylated EA2 from EphA2-Ephrin A1-Fc complex by unlabeled competitor; format: binding; settings: biotinylated EA2 10 μg/ml; FIG. 18B
T2 construct: consisting of the extracellular domain of EphA2 linked to human IgG1 constant region (EphA2-Fc)
Description: (A) EphA2-Fc was incubated with and bound to immobilized Ephrin A1-Fc. Labeled Ephrin A1-Fc (black), EA2 (white) or Eph099B-233.152 (grey) was incubated with the EphA2-Ephrin A1-Fc complex and amount of binding was measured. (B) EphA2-Fc was incubated with and bound to immobilized Ephrin A1-Fc. Labeled EA2 was then incubated with the EphA2-Ephrin A1 complex. Unlabeled competitor was incubated with EphA2-Ephrin A1-EA2 complex in the indicated amount. Competitors were Ephrin A1-Fc (black), EA2 (white) or Eph099B-233.152 (grey).
The EphA2-Ephrin A1-Fc complex was prepared as described above. Biotinylated EA2 (10 μg/ml) was then incubated with the complex for 30 min. Unlabeled competitor was incubated with EphA2-Ephrin A1-Fc-EA2 complex in the indicated amount. Unlabeled EA2 could displace the labeled EA2 at concentrations of 100 ng/ml or greater.

[3] = tested on: MDA-MB-231 breast cancer cells; test: Tumor growth, MDA-MB-231 cells implanted orthotopically into athymic mice; format: in vivo; settings: 6 mg/kg i.p. twice a week for 3 weeks; FIG. 7A
Description: Total tumor volume was determined after sacrifice.

[4] = tested on: MCF-7^EphA2 cells; test: Soft agar colonization of MCF-7^EphA2 cells; format: cell-based; settings: TAM 1 μM, EA2 10 μg/ml
Description: (B) MCF-7 (circles) or MCF-7^EphA2 cells (squares) were implanted into the mammary fatpad (n=15 mice per group) in the presence of supplemental estrogen.
MCF-7^EPhA2 cells were incubated in the presence of 3 μg/ml of EA2 for the time indicated prior to sample extraction and Western blot analyses with an EphA2-specific antibody (D7). (B) The membrane was stripped and re-probed with a β-catenin-specific antibody as a loading control.
Growth assays were conducted as follows. MCF-7^neo (control cells) or MCF7^EphA2 cells were seeded in 96-well plates. […] Colony formation in soft agar was performed as previously described (Zelinski et al., 2001, Cancer Res. 61: 2301-6) and scored microscopically, defining clusters of at least three cells as a positive. The data represent the average of ten separate high-power microscopic fields from each sample and representative of at least three separate experiments. Error bars represent the standard error of the mean of at least three different experiments as determined using Microsoft Excel software.
(§1) Growth MCF-7^EphA2 cells which had decreased EphA2 expression levels was assayed in soft agar.

[5] = target: EphA2 (Homo sapiens, UniProt P29317); test: EphA2 expression in MCF-7^EphA2 cells after EA2 treatment (Western blot); format: cell-based
Description: MCF-7^EPhA2 cells were incubated in the presence of 3 μg/ml of EA2 for the time indicated prior to sample extraction and Western blot analyses with an EphA2-specific antibody (D7).
Estrogen-sensitive breast cancer cells, MCF-7 cells, were transfected with and stably overexpressed human EphA2 (MCF-7^EphA2) (pNeoMSV-EphA2 provided by Dr. T. Hunter, Scripps Institute). Western blot analyses confirmed the ectopic overexpression of EphA2 in transfected cells relative to matched controls (data not shown).
as §1

Sequence of EphA2 (P29317 24-976): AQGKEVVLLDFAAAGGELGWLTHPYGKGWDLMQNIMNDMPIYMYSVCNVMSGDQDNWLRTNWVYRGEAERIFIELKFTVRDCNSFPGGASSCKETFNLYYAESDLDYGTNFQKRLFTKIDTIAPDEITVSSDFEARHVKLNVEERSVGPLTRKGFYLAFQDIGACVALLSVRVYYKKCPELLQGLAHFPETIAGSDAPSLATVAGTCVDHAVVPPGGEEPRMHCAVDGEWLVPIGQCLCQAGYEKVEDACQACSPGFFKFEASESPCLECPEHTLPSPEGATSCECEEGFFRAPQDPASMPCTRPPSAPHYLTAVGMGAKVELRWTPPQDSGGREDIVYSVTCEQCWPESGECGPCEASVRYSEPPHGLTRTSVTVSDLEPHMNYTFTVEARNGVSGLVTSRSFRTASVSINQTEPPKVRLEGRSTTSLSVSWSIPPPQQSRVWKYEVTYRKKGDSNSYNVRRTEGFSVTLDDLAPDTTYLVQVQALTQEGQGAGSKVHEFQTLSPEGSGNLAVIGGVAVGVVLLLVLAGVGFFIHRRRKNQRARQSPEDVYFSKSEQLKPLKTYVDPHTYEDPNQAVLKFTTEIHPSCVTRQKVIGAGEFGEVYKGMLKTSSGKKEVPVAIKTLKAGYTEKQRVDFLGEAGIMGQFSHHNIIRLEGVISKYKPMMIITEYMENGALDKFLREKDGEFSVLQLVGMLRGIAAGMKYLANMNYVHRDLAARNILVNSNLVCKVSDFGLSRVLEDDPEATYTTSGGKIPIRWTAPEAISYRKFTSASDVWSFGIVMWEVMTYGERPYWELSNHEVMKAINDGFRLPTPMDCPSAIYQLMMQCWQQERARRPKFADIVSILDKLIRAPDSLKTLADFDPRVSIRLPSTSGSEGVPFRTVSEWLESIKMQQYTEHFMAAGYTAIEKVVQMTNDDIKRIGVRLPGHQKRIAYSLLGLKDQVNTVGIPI
T1 sequence (P29317 24-537 limits assumed): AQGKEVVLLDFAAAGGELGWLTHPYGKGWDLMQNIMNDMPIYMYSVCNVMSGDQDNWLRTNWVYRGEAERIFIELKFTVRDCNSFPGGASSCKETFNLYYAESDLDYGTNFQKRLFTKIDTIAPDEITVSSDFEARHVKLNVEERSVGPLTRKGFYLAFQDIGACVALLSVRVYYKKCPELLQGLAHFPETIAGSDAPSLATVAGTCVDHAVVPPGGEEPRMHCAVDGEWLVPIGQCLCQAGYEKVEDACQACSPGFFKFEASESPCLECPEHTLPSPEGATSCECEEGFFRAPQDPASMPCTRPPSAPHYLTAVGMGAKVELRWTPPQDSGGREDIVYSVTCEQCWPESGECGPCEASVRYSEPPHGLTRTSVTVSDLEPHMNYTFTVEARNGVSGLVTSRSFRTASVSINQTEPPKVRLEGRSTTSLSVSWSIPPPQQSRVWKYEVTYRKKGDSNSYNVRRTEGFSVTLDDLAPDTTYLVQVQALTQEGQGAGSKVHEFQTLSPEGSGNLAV
T2 sequence (P29317 24-537 limits assumed): as above
T2 sequence (P20827 19-182 partner limits assumed): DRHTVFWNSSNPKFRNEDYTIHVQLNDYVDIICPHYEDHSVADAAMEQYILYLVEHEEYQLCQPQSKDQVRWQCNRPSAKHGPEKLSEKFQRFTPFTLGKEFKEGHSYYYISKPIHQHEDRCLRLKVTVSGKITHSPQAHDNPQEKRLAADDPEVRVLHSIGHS

Concentration of unlabeled competitor displacing labeled EA2 [2]: ≥ 100 ng/mL
Time EphA2 remained undetectable after EA2 treatment ([5]; 3 μg/ml EA2): ≥ 24 h
B1: EA2: EphA2 agonistic monoclonal antibody; hybridoma strain EA2.31, ATCC PTA-4380 (antibody, V domains shown)
VH: DVKLVESGGGLVKPGGSLKLSCAASGFTFSSYTMSWVRQTPEKRLEWVATISSGGTYTYYPDSVKGRFTISRDNAKNTLYLQMSSLKSEDTAMYYCTREAIFTYWGQGTLVTVSA
VL: DIKMTQSPSSMYASLGERVTITCKASQDINNYLSWFQQKPGKSPKTLIYRANRLVDGVPSRFSGSGSGQDYSLTISSLEYEDMGIYYCLKYDEFPYTFGGGTKLEIK
Competition with labeled EA2 for binding to EphA2-Fc [1]: could decrease the amount of labeled EA2 binding to EphA2-Fc
Tumor growth, MDA-MB-231 implanted orthotopically [3]: inhibited
Soft agar colonization response / tamoxifen sensitivity, MCF-7^EphA2 cells ([4]; 1 μM 17β-estradiol, FIGS. 11A, 13C (11A also MCF-7)): restored a phenotype that was comparable to control MCF-7 cells; also recorded: decreases malignant growth; also recorded: increased the sensitivity of MCF-7^EphA2 cells to tamoxifen
Inhibition / decrease of soft agar colonization, MCF-7^EphA2 cells ([4]; 14 days): 19%
EphA2 activation and expression level after EA2 treatment ([5]; 3 μg/ml EA2, FIG. 13A): induced EphA2 activation and subsequent degradation; also recorded: Decreased levels of EphA2 expression were observed within two hours
